Source: the DeepSol protein solubility set

Assay: soluble on expression in E. coli; label from the status in PepcDB or PDB records

| Sequence | soluble on expression in E. coli |
| --- | --- |
| MKRHYLFSICILTLLLLAACGSSATEDHELEVPEDQETIEIDGEEEDSSQPVFSDEEALVVDDLLEEESRGEEATEHSEPIEEDTSTPSEASGSENVEETEQQPADENNQAFALNVKKFKLELEWQDGDELEMEYEQKKNEKGKAKVEWDGAHKEKMSGKQAVEWMEDFLSQLDLSEGTNSDRLKSQVYAILDIDPSEVEELDLEIEFFDMAGDPLEHHHHHH | not soluble |
| MKRKHLSGKSIGIVFGTFAPMHVGHVDLITKEKRANDNVLVIVSGSNTQKDRGTRTGLSLNRRFRNVREIFYDDELIVVDKLDEADMPPYPEGWVPWVNRVKDLITKNTDGPEKITFYVGESEYVIELNRYYPQAQVELIECSVINISATEIRDNPIENWRFITKPFRRHFTRKVLVVGSASGGKTTLVKDLARTYNAPCSLEYAREYQEKYNVRDDELDTNDYIHLLTDQYAQTAEIIDNGQHSWLIFADTNSTVTKVYIDYYLKENISQEEFDLLDRLYQVTQAREKWDLIFVILPKSNYVDDGSRDMTMADNRTRDWFTKHLLDLLSPFKDKIVILVENCDSDSFFADNYHYAKKTIKERLHIEI | not soluble |
| MKRKTIDIITLGCSKNLVDSEQLMRQLEEAGYDVTHDSEKPTGEIAVINTCGFIGDAKEESINMILEFAQEKEEGNLEKLFVMGCLSERYLKELAIEIPQVDKFYGKFNWKGLLQDLGKAYHEELHIERTLTTPKHYAYLKISEGCDRKCSYCAIPIITGRHVSRPIEEILDEVRYLVSNGVKEFQVIAQELTYYGVDLYKKQMLPELIERISEIPGVEWIRLHYAYPAHFPEELFRVMRERDNVCKYMDIALQHISDNMLQRMRRHVTKKETYRLIEQFRKEVPGIHLRTTLMVGHPGETEGDFEELKEFVRKVRFDRMGAFTYSEEEGTYAAANYEDSIPQELKQARLDELMAIQQGISTELSASKVGQKMKVIIDRIEGEYYIGRTEFDSPEVDPEVLIRCEGDNLMIGNFYQVQVIDSDEFDLFGEIILEHHHHHH | soluble |
| MKRLLILTALLPFVGFAQPINTLNNPNQPGYQIPSQQRMQTQMQTQQIQQKGMLNQQLKTQTQLQQQHLENQINNNSQRVLQSQPGERNPARQQMLPNTNGGMLNSNRNPDSSLNQQHMLPERRNGDMLNQPSTPQPDIPLKTIGP | soluble |
| MKRLNCRRKGIRVRILAIDTSNQTLSIAVCENQKILGSYTATVKRNHSLTLMPAIDYLMSQLNLAPTAIDRFVVAEGPGSYTGLRLGVTTAKTLAYTLKKELVGISSLQTLAANCVGQTGLIVPLFDARRKNVYAGAYRFVNGVWQNELPDQHISLRELLEQLKNEPNLFFVGEDVEKFTEEIAQIIPHGEICDVPQWQIPNAAVLAALGSVAEPVENVHGFLPAYLKKVEAEENWLKTHTPNGESYVEKLLEHHHHHH | not soluble |
| MKRNLLSSAIIVAIMSLGLTGCDDKKAETETLPPANSQPAAPAPEAKPTEAPVAKAEAKPETPAQPVVDEQAVFDEKMDVYIKCYNKLQIPVQRSLARYADWLKDFKQGPTGEERTVYGIYGISESNLAECEKGVKSAVALTPALQPIDGVAVSYIDAAVALGNTINEMDKYYTQENYKDDAFAKGKTLHQTFLKNLEAFEPVAESYHAAIQEINDKRQLAELKNIEEREGKTFHYYSLAVMISAKQINNLISQDKFDAEAAMKKVSELETLVAQAKEADKGGMNFSFINSAGQYQLEAKKYVRRIRDKVPYSDWDKEQLQDANSSWMVEDSFPRALREYNEMVDDYNSLR | soluble |
| MKRVALLAVGSFNPPTIAHLRMLEVARSHLETINTQVVEGIMSPVADSYNNKPTLIKSNFRIQMVRAATKSSDWIRADDWECTRTTWTRTIDVLRHHRELVQEKFGSDVGMMLVVGGDVVDSFTRILPDGSNLWNSSDIRTIITEFGLIVLSREGSNPLNTIQSMPAISEFCDRIIQVKDEVCPSGVSSTRLRAAIMNKKSIKYSTPDEVINFIRENNLYQKI | not soluble |
| MKRVFGILVCFMLLLSGTSVSFAQSEKTKQDKTEETTPKLAEQASSAIVIEQDTGKVLFDKNPNEKLPPASMTKIMTMLLIMEQVEKGKLKLTDKVRASEHAASMGGSQIFLEPGEEMTVNEMLKGIAIASGNDASVAVAEHIAGSEEGFVNMMNKKAKDLGLKNTHFQNPTGLPAKDHYSTANDMAIMAKELMKYPLIRKYTGKYEDYLREDTDKKFWLVNTNKLVRFYPGVDGVKTGFTTEAKYCLTASAEKNGMRVISVVMGAPTSKERNNQVTKLLDYAFGQYMTKKLYTRGEKIKTVQVGKGKKEKVDLVASDNVSLLMKKGENMDKVKQEVIAEKKVKAPIKKGDALGTLVIKKDKDVLLKQTIVAKEDVAAASWWELFKRSFGMFSTSK | not soluble |
| MKRYISIKGIGTYLPKRKVDSLEIDQMLDVPEGWTLKKAGVKTRYFVDGETSSYMGAEAAKKAVEDAKLTWDDIDCIICGSGTIQQAIPSTASLIQEQLGLQHSGIPCFDINSTCLSFITALDTISYAIECGRYKNVVIISSEISSVGLNWGQNESSILFGDGAAAVVITKGDHSSSIIASHMETYSSGAHLSEIRGGGTMIHPREYSEERKEDFLFDMNGRAIFKLSSKYLMKFIDKLLMDTGYSLADIDLIVPHQASGPAMRLIRKKLGVDEERFMTIFEDYGNMISASIPVALFEAIKQKKVQRGNKILLLGTSAGLSIGGILLEY | not soluble |
| MKSAEIREAFLRFFEEKGHTRVASSSLIPANDPTLLFTNAGMNQFKDCFLGLEKRAYTRATTSQKCVRAGGKHNDLENVGYTARHHTFFEMLGNFSFGDYFKRDAIHYAWEFLTGEKWLNLPKEKLWVTVYATDDEAYDIWTKEVGVPAERMVRIGDNKGAPYASDNFWAMGDTGPCGPCTEIFFDHGPEIWGGPPGSPEEDGDRYIEIWNNVFMQFNRTADGVMHPLPAPSVDTGMGLERVSAVLQHVHSNYEIDLFQNLLKASAEAIGCANDDAPSLKVVADHIRSCSFLIADGVLPSNEGRGYVLRRIIRRACRHGNKLGARGTFFHKIVAALVAEMGDAFPELKQQQAHIERVLKTEEEQFAKTLEQGLKILEQDLAELQGSVIPGNVVFKLYDTYGFPVDLTNDIARERELTIDEDGFEREMEAQRERARASSAFGMDYNSLVKVDGETRFLGYQGVSGAGQIVALFRDGQAVERLEEGEEGVVVLDQTPFYAESGGQVGDSGYLEAAGVRFDVRDTTKAGGAHLHHGVVARGNLSVGGAVKAEVDASVRQATALNHSATHLLHAALRQVLGDHVQQKGSLVDSQRLRFDFSHFEAIKAEQLKALEDIVNAEIRRNTEVETEETDIDTAKAKGAMALFGEKYGDQVRVLSMGGDFSVELCGGTHVSRTGDIGLFKITSEGGVAAGVRRIEAVTGAAALAYLNGAEEQLKEAASLVKGSRDNLLDKLGALLERNRSLEKELEQLKAKAASAAGDDLSAAAVEIKGAKVLAARLDGLDGKALLALVDQLKNKLGRAVILLGGELDGKVVLVAGVTQDLTGQLKAGELMKQAAAAVGGKGGGRPDMAQGGGTDAAKLDEALALAQRF | not soluble |
| MKSEETQPFGITIEGVELSDGDVQFADKSLPLPFSTSIHTLSGEVSTLSSDSSEPARVKFEGEVAEYGLAQVNGTVHAWHPTRQTTINVRFRNLQIPEYSPYTVNFAGRKIADGTMDLDLDYTVNEEKLDGQNNLVLHDLKLGEKMESSDAMDLPLDLAIALLQDSDGLEHHHHHH | soluble |
| MKSGRFIGVMSGTSLDGVDVVLAAIDETMVAQQASLTWPIPVHLKKGILDICQGQPLTLSQLGQLDTQLGRLFAQAVNALLAQQRLQPRDIVAIGCHGQTVWHEPTGEAPHTLQIGDNNHIVAHTGITVVGDFRRRDIALGGQGAPLVPAFHHALLGHPTEKRMVLNIGGIANLSLLFPGQAVRGYDTGPGNMLMDAWIWRQCAQPYDKDAAWAKEGQVILPLLQKMLRDPYFAASAPKSTGREYFNYGWLERHLAAFPGADARDVQATLAELTAVSIAQQVLLNGGCERLMVCGGGGRNPLVMARLAALLPGIEVSTTDKAGISGDDMEALAFAWLAWRTLAGLPGNLPSVTGATEASVLGAIYPANPITQS | not soluble |
| MKSIISLMAACAIGAASFAAPAFAQDKGSVGIAMPTKSSARWIDDGNNIVKQLQEAGYKTDLQYADDDIPNQLSQIENMVTKGVKVLVIASIDGTTLSDVLKQAGEQGIKVIAYDRLIRNSGDVSYYATFDNFQVGVLQATSITDKLGLKDGKGPFNIELFGGSPDDNNAFFFYDGAMSVLKPYIDSGKLVVKSGQMGMDKVGTLRWDPATAQARMDNLLSAYYTDAKVDAVLSPYDGLSIGIISSLKGVGYGTKDQPLPVVSGQDAEVPSVKSIIAGEQYSTIFKDTRELAKVTVNMVNAVMEGKEPEVNDTKTYENGVKVVPSYLLKPVAVTKENYKQVLVDGGYYKEDQLK | not soluble |
| MKSKFEASIDNLKEIEMNAYAYELIREIVLPDMLGQDYSSMMYWAGKHLARKFPLESWEEFPAFFEEAGWGTLTNVSAKKQELEFELEGPIISNRLKHQKEPCFQLEAGFIAEQIQLMNDQIAESYEQVKKRADKVVLTVKWDMKDPVMAGDPLEHHHHHH | soluble |
| MKSKLKLHGFNNLTKTLSFNIYDICYAETPEDLQAYVQYIDEEYDAERLTQILTDVVDIIGANILNIARQDYDPQGASVTILISEQPVTPTDSQIEESPGPLPDTILAHLDKSHITVHTYPEIHPVDGIATFRVDIDVSTCGVISPLKALNYLIHQFDSDIVTVDYRVRGFTRDIEGRKHFIDHEINSIQNYLSDDTREAYQMTDVNVYQENLFHTKMLLKDFELENYLFGDATRTLSAEQREQVTERLKHEMLEIFYARNMPR | not soluble |
| MKSLITAGLVFSLIASSYSAQAEEKQSGDLAADIGAVGIPVIAGSIALYKEDYDGFWMFAKGATYTLAATQALKYTVKEERPNGEDNLSFPSGHSSSAFQGASYLQFRYGWEYGVPAYIGASLVGYSRVENEHHYWRDVIAGAVLATTIQYLVTDKYLDSNSVMIAPVINDDHVGIAASFSF | not soluble |
| MKSLQALFGGTFDPVHYGHLKPVETLANLIGLTRVTIIPNNVPPHRPQPEANSVQRKHMLELAIADKPLFTLDERELKRNAPSYTAQTLKEWRQEQGPDVPLAFIIGQDSLLTFPTWYEYETILDNAHLIVCRRPGYPLEMAQPQYQQWLEDHLTHNPEDLHLQPAGKIYLAETPWFNISATIIRERLQNGESCEDLLPEPVLTYINQQGLYR | soluble |
| MKSRRAFITDAGGDHGSMNTQATPSPQFYLTAPATCPYLPNQMERKVFTHLVGPRAPEMNDLLTQGGFRRSQNIAYRPACETCRACVSVRILTEQFQPTKSMRRVLAANSDVVATVHAAEPSTEQFALFRRYLDHRHQSGGMSDMSALDYAIMVEDTHVNTRIIEYRVREPGSGIDSSKRGELLAVALSDVMSDGLSMVYSFFNPELEKRSLGTFMIIDHITRTRALGLPHVYLGYWVDGSEKMGYKTRYHPQEHLTPRGWEIYSPKEELEHHHHHH | not soluble |
| MKSTFSVLFFVKKDKQKINGSYPIFVRITIDGVASRFNSKLDVQPKLWDGKAGKAAGRSAEATRINRLLDDINASLNTIYHELQRRDNYVTAEKVKNEFLGHSENHDTILNLFQKHNDDVKQLVGISKTIATYRKYEVTRRHLAEFIQSKYNLSDISIKEITPMFITDFELYLRTTCKCGYNTTAKFMQFFKRIILIARNNGILIGDPFANYKIRLEKVDRGYLTEDEIKIILKKKMVSERLEQVRDVFIFSCFSGLAYVDVANLKEDNIRKSFDGNLWIITKRQKTNTDVNVPLLDIPKMILEKYKGKLPNGKVLPIISNQK | not soluble |
| MKSVFVESTIFEKYRDEYLSDEEYRLFQAELMLNPKLGDVIQGTGGLRKIRVASKGKGKRGGSRIIYYFLDEKRRFYLLTIYGKNEMSDLNANQRKQLMAFMEAWRNEQS | not soluble |
